Laboratory results from patent US20180155413A1 (AstraZeneca / MedImmune, published 2018).
Read-outs that look alike come from different tables or passages of the source.

Tests used:
Assay in all cases: cell-based or functional assay
[1] = target: HA of ca A/Panama/2007/99 (H3N2) (influenza A virus)
[2] = target: HA of A/Wisconsin/67/2005 (H3N2) (influenza A virus)
[3] = target: HA of A/Victoria/361/2011 (H3N2) (influenza A virus)
[4] = target: HA of A/Solomon Island/3/2006 (H1N1) (influenza A virus)
[5] = target: HA of A/Hong Kong/8/68 (H3N2) (influenza A virus)
[6] = target: HA of A/New Caledonia/71/2014 (H3N2) (influenza A virus)
[7] = target: HA of A/Puerto Rico/8/34 (H1N1) (influenza A virus, UniProt P03452 18-565)
Sequence of HA of A/Puerto Rico/8/34 (H1N1) (P03452 18-565 limits assumed): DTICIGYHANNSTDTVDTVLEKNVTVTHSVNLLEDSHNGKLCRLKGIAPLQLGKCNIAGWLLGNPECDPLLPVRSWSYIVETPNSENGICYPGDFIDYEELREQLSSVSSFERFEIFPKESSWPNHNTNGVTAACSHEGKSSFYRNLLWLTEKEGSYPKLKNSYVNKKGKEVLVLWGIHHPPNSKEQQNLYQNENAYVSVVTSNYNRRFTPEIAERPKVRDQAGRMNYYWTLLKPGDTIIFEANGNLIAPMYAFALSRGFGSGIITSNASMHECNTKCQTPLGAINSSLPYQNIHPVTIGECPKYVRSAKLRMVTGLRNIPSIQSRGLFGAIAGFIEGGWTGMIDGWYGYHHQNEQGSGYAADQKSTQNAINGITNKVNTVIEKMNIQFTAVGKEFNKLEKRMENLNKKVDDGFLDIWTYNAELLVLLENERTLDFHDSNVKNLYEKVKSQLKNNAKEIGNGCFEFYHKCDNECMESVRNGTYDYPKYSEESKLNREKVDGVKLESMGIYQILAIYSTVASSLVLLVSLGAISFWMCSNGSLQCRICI

[8] = target: HA of A/AmericanSomoa/4786/2013 (H3N2) (influenza A virus)
[9] = target: HA of ca A/Japan/57 (H2N2) (influenza A virus)
[10] = target: HA of A/New Hampshire/04/2010 (H1N1) (influenza A virus)
[11] = target: HA of A/Texas/50/2012 (H3N2) (influenza A virus)
[12] = target: HA of ca A/South Dakota/6/2007 (H1N1) (influenza A virus)
[13] = target: HA of ca A/New Caledonia/20/99 (H1N1) (influenza A virus)
[14] = target: HA of ca A/mallard/Alberta/89/85 (H6N2) (influenza A virus)
[15] = target: HA of ca A/Sydney/5/97 (H3N2) (influenza A virus)
[16] = target: HA of A/Beijing/262/95 (H1N1) (influenza A virus)
[17] = target: HA of A/Shan dong/9/93 (H3N2) (influenza A virus)
[18] = target: HA of A/California/7/2004 (H3N2) (influenza A virus)
[19] = target: HA of A/Minnesota/11/2010 (H3N2v) (influenza A virus)
[20] = target: HA of A/Shenzhen/227/95 (H1N1) (influenza A virus)
[21] = target: HA of A/Victoria/3/75 (H3N2) (influenza A virus)
[22] = target: HA of A/Palau/6759/2014 (H3N2) (influenza A virus)
[23] = target: HA of ca A/Brit. Columbia/CN-6/04 (H7N3-LP) (influenza A virus)
[24] = target: HA of ca A/Wuhan/359/95 (H3N2) (influenza A virus)
[25] = target: HA of A/Berlin/93/2011 (H3N2) (influenza A virus)
[26] = target: HA of A/Fort Monmouth/1/47 (H1N1) (influenza A virus)
[27] = target: HA of ca A/Panama/2007/99 (H3N2) (influenza A virus); remark: listed apart in the source
[28] = target: HA of A/Solomon Island/3/2006 (H1N1) (influenza A virus); remark: listed apart in the source
[29] = target: HA of A/Hong Kong/8/68 (H3N2) (influenza A virus); remark: listed apart in the source
[30] = target: HA of B/Ohio/1/2005 (victoria) (influenza B virus)
[31] = target: HA of B/Sichuan/379/99 (yamagata) (influenza B virus)
[32] = target: HA of B/Hong Kong/330/2001 (victoria) (influenza B virus)
[33] = target: HA of A/Wilson Smith N/33 (H1N1) (influenza A virus, UniProt P03454 18-565)
Sequence of HA of A/Wilson Smith N/33 (H1N1) (P03454 18-565 limits assumed): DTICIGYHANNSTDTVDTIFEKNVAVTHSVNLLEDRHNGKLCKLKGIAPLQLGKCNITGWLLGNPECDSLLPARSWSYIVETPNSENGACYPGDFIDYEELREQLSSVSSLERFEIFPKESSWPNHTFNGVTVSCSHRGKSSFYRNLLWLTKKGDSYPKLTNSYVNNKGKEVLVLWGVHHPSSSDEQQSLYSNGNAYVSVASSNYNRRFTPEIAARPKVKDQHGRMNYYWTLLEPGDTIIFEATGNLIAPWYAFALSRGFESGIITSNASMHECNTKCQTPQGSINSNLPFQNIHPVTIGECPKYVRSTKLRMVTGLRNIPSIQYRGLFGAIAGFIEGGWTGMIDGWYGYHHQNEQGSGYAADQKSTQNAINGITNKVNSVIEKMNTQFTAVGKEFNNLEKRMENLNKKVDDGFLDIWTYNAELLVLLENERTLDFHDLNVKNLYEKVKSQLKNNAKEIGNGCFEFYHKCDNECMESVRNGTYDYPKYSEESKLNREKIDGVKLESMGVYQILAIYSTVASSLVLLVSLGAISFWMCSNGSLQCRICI

[34] = target: HA of ca B/Beijing/243/97 (victoria) (influenza B virus)
[35] = target: HA of B/Florida/4/2006 (yamagata) (influenza B virus)
[36] = target: HA of A/Beijing/262/95 (H1N1) (influenza A virus); remark: listed apart in the source
[37] = target: HA of B/Malaysia/2506/2004 (victoria) (influenza B virus)
[38] = target: HA of A/Shan dong/9/93 (H3N2) (influenza A virus); remark: listed apart in the source
[39] = target: HA of A/Victoria/3/75 (H3N2) (influenza A virus); remark: listed apart in the source
[40] = target: HA of B/Yamanashi/166/98 (yamagata) (influenza B virus)
[41] = target: HA of A/California/07/2009 (H1N1) (influenza A virus)

B1: GL20/39 BiS4 100/44 (bispecific antibody)
light: DIQMTQSPSSLSASVGDRVTITCRTSQSLSSYTHWYQQKPGKAPKLLIYAASSRGSGVPSRFSGSGSGTDFTLTISSLQPEDFATYYCQQSRTFGQGTKVEIKRTVAAPSVFIFPPSDEQLKSGTASVVCLLNNFYPREAKVQWKVDNALQSGNSQESVTEQDSKDSTYSLSSTLTLSKADYEKHKVYACEVTHQGLSSPVTKSFNRGEC
heavy: not shown
What does the source list for B1?
Neutralization (IC50) [1]: 28.5 nM; Neutralization (IC50) [2]: 10.3 nM; Neutralization (IC50) [3]: 5.2 nM; Neutralization (IC50) [4]: 4.4 nM; Neutralization (IC50) [5]: 3.3 nM; Neutralization (IC50) [6]: 0.8 nM; Neutralization (IC50) [7]: 18.6 nM; Neutralization (IC50) [8]: 0.8 nM; Neutralization (IC50) [9]: 5.3 nM; Neutralization (IC50) [10]: 0.4 nM; Neutralization (IC50) [11]: 3.1 nM; Neutralization (IC50) [12]: 6.8 nM; Neutralization (IC50) [13]: 6.2 nM; Neutralization (IC50) [14]: 6.5 nM; Neutralization (IC50) [15]: 22.6 nM; Neutralization (IC50) [16]: 10.6 nM; Neutralization (IC50) [17]: 18.3 nM; Neutralization (IC50) [18]: 10.5 nM; Neutralization (IC50) [19]: 17.1 nM; Neutralization (IC50) [20]: 7.9 nM; Neutralization (IC50) [21]: 5.2 nM; Neutralization (IC50) [22]: 4.6 nM; Neutralization (IC50) [23]: 18.3 nM; Neutralization (IC50) [24]: 16.7 nM; Neutralization (IC50) [25]: 1.1 nM; Neutralization (IC50) [26]: 5.2 nM; Neutralization (IC50) [27]: 37.3 nM; Neutralization (IC50) [28]: 4.7 nM; Neutralization (IC50) [29]: 6 nM; Neutralization (IC50) [30]: 16.5 nM; Neutralization (IC50) [31]: 7.8 nM; Neutralization (IC50) [32]: 75.8 nM; Neutralization (IC50) [33]: 16.3 nM; Neutralization (IC50) [34]: 44.3 nM; Neutralization (IC50) [35]: 3.6 nM; Neutralization (IC50) [36]: 11.9 nM; Neutralization (IC50) [37]: 25.8 nM; Neutralization (IC50) [38]: 30.3 nM; Neutralization (IC50) [39]: 15.9 nM; Neutralization (IC50) [40]: 1.2 nM; Neutralization (IC50) [41]: 20.6 nM

B2: GL20 IgG (antibody, V domains shown)
VH: QVQLQQSGPGLVKPSQTLSLTCAISGDSVSSYNAVWNWIRQSPSRGLEWLGRTYYRSGWYNDYAESVKSRITINPDTSKNQFSLQLNSVTPEDTAVYYCARSGHITVFGVNVDAFDMWGQGTMVTVSS
VL: DIQMTQSPSSLSASVGDRVTITCRTSQSLSSYTHWYQQKPGKAPKLLIYAASSRGSGVPSRFSGSGSGTDFTLTISSLQPEDFATYYCQQSRTFGQGTKVEIK
Which “Neutralization (IC50)” value [1] does the source give for B2 here?
The value was 44.2 nM.

What about the “Neutralization (IC50)” value [2] of the same binder?
Its value is 10.7 nM.

What about the “Neutralization (IC50)” value [3] of the same binder?
Its value is 5.7 nM.

And the “Neutralization (IC50)” value [4]?
The value was 4.3 nM.

What about the “Neutralization (IC50)” value [5] of the same binder?
The value was 3 nM.

What about the “Neutralization (IC50)” value [6] of the same binder?
Its value is 1 nM.

What about the “Neutralization (IC50)” value [7] of the same binder?
The value was 10 nM.

What about the “Neutralization (IC50)” value [8] of the same binder?
Its value is 0.9 nM.

What about the “Neutralization (IC50)” value [9] of the same binder?
Its value is 5 nM.

And the “Neutralization (IC50)” value [10]?
Its value is 0.4 nM.

And the “Neutralization (IC50)” value [11]?
The value was 4.8 nM.

And the “Neutralization (IC50)” value [12]?
Its value is 10.8 nM.

And the “Neutralization (IC50)” value [13]?
The value was 4.2 nM.

What about the “Neutralization (IC50)” value [14] of the same binder?
Its value is 4.8 nM.

And the “Neutralization (IC50)” value [15]?
Its value is 32.1 nM.

What about the “Neutralization (IC50)” value [16] of the same binder?
Its value is 10.8 nM.

What about the “Neutralization (IC50)” value [17] of the same binder?
The value was 21.8 nM.

What about the “Neutralization (IC50)” value [18] of the same binder?
Its value is 14.2 nM.

What about the “Neutralization (IC50)” value [19] of the same binder?
The value was 11.1 nM.

What about the “Neutralization (IC50)” value [20] of the same binder?
Its value is 9.3 nM.

What about the “Neutralization (IC50)” value [21] of the same binder?
Its value is 3 nM.

And the “Neutralization (IC50)” value [22]?
Its value is 6.8 nM.

What about the “Neutralization (IC50)” value [23] of the same binder?
The value was 7.4 nM.

What about the “Neutralization (IC50)” value [24] of the same binder?
The value was 16.3 nM.

And the “Neutralization (IC50)” value [25]?
Its value is 1.1 nM.

And the “Neutralization (IC50)” value [26]?
The value was 6.1 nM.

What about the “Neutralization (IC50)” value [27] of the same binder?
Its value is 46.9 nM.

What about the “Neutralization (IC50)” value [28] of the same binder?
Its value is 4.4 nM.

And the “Neutralization (IC50)” value [29]?
Its value is 7 nM.

What about the “Neutralization (IC50)” value [30] of the same binder?
The value was greater than 1000 nM.

What about the “Neutralization (IC50)” value [31] of the same binder?
The value was greater than 1000 nM.

And the “Neutralization (IC50)” value [32]?
The value was greater than 1000 nM.

What about the “Neutralization (IC50)” value [33] of the same binder?
Its value is 13 nM.

What about the “Neutralization (IC50)” value [34] of the same binder?
Its value is greater than 1000 nM.

And the “Neutralization (IC50)” value [35]?
The value was greater than 1000 nM.

What about the “Neutralization (IC50)” value [36] of the same binder?
The value was 8.3 nM.

And the “Neutralization (IC50)” value [37]?
Its value is greater than 1000 nM.

And the “Neutralization (IC50)” value [38]?
The value was 19.2 nM.

What about the “Neutralization (IC50)” value [39] of the same binder?
Its value is 12.9 nM.

And the “Neutralization (IC50)” value [40]?
The value was greater than 1000 nM.

What about the “Neutralization (IC50)” value [41] of the same binder?
The value was 18.6 nM.
